# B1: aBFL1: designed binding partner of BFL1 (protein)
# chain: GADPKKVLDKAKDQAENRVRELKQKLEELYKEARKLDLTQEKRKKLEVATLGAVLAAHGDILNAIMQAKEEADKLKKAGLVNSQQLDELKRRLEELKEEALRKASDYGNEFHLKRRYG
# B2: mFAP2: previously reported mini-fluorescence-activating protein, initial design (protein)
# chain: SRAAQLLPGTWQVTMTNEDGQTSQGQMHFQPRSPYTMDVVAQGTISDGRPISGYGKVTVKTPDTLDVDITYPSLGNIKAQGQITMDSPTQFKFDATTKGAGNFTGRLTGTLQRQE
# B3: mFAP_pH: particularly pH-responsive variant (protein)
# chain: SRAAQLLPGTWQVTMTNEDGQTSQGQMHFQPRSPYTMDIVAQGTISDGRPIVGYGKATVKTPDTLDIDITYPSLGNIKAQGQITMDSPTQFKFDATTKGENDFHGRLTGTLQRQE
# B4: aBCL2: designed binding partner of BCL2 (protein)
# chain: GADPKKVLDKAKDEAENRVRELKQRLEELYKEARKLDLTQEMRQELVDKARAASLQANGDIFYAILRALAEAEKLKKAGLVNSQQLDELKRRLEELAEEARRKAEKLRDEFRLKLEYG
# Key:
# BCL2 = molecular target: BCL2; design: method as in PMID 27805565; conditions: read-out: dissociation constant (Kd); cited from earlier work
# [1] = with DFHBI; cited from earlier work
# [2] = design: method as in PMID 30209393; conditions: read-out: Kd for the phenolate form of DFHBI; cited from earlier work
# [3] = Photophysical characterization: absorbance, excitation/emission spectra, extinction coefficients, quantum yields; assay type: physicochemical
# Protocol: Protein preparation: mFAP2a, mFAP2b, and mFAP10 were produced by large-scale protein purification and SEC purification, and dialyzed overnight into DPBS that was adjusted to pH 7.40 using NaOH.
# Chromophore preparation: DFHBI (Lucerna) and DFHBI-1T (Lucerna) were dissolved to 20.0 mM in 100% DMSO, and diluted in DPBS (pH 7.40) to measure absorbances on a Jasco V-750 spectrophotometer at peak absorbance wavelengths (417 nm for DFHBI and 422 nm for DFHBI-1T). Following background subtraction of identical buffer without chromophore, Beer’s Law was used to calculate the molar chromophore concentrations of the stock solutions using previously reported extinction coefficients.
# Preparation of protein–chromophore complexes: For quantum yield measurements, 1.00 μM, 836 nM, or 919 nM chromophore solutions in DPBS (pH 7.40) at 4.00 mL final volumes were prepared for the following eight conditions: DFHBI only, DFHBI-1T only, 43.5 µM 6xHis-mFAP10 with DFHBI, 43.5 µM 6xHis-mFAP10 with DFHBI-1T, 134 μM 6xHis-mFAP2a with DFHBI, 134 μM 6xHis-mFAP2a with DFHBI-1T, 206 μM 6xHis-mFAP2b with DFHBI, and 206 μM 6xHis-mFAP2b with DFHBI-1T.
# Extinction coefficients: Absorbance spectra of protein–chromophore complexes were first measured with a Thermo Scientific BioMate 3S UV–Vis Spectrophotometer (1 nm interval, 800 nm min^−1). The extinction coefficients were then calculated using Beer’s Law:12 A=ε⋅b⋅c, where A is peak absorbance, ε is extinction coefficient, b is path length (1 cm), and c is concentration (1.00 μM, 836 nM, or 919 nM).
# Relative quantum yield: A Perkin-Elmer LS-B Luminescence Spectrophotometer (10 nm bandwidth, 1 nm interval, 100 nm min^−1) was used. The fluorescence emission spectra of the protein–chromophore complexes (in DPBS, pH 7.40) and reference dye Acridine Yellow G (in methanol) were first obtained, and the quantum yield was then calculated using the equation[53]:13 ϕc=ϕr⋅1−10^−Ar(λex)/1−10^−Ac(λex)⋅∫Fc(λ)⋅dλ/∫Fr(λ)⋅dλ⋅nc2/nr2, where ϕ is quantum yield, A(λex) is absorbance at the excitation wavelength λex ( λex = 440 nm), F is fluorescence emission, n is refractive index of the solution (1.3350 for DPBS at pH 7.40 and 1.3284 for methanol), and the subscripts “c” and “r” refer to the protein–chromophore complex measured and the reference dye, respectively. […]
# Absolute quantum yield: An integrating sphere instrument (Hamamatsu C9920-12) (6 nm excitation bandwidth, 1 nm interval) and a high-sensitivity photonic multi-channel analyzer (Hamamatsu C10027-01) were used to measure a light emission spectrum. Absolute quantum yields were measured for solutions of protein–chromophore complexes in DPBS (pH 7.40) in which ≥95% of the total chromophore was occupying the protein-binding pocket (Table 1). […]
# [4] = In vitro chromophore titration with DFHBI (fluorescence, single-binding site isotherm fit)
# Protocol: Fluorescence endpoints were measured on a Synergy Neo2 hybrid multi-mode reader (BioTek) in flat bottom, black polystyrene, non-binding surface 96-well microplates (Corning 3650). In measuring chromophore-binding affinities (Fig. 1d, e), mFAP2, mFAP2a, and mFAP2b, and mFAP10 were produced by large-scale protein purification and SEC purification. Proteins were aliquoted in eight technical replicates in 200 μL final volumes to 20.0 nM final concentration in ten serial dilutions ( 10 dilution factor) of DFHBI starting from 31.6 μM DFHBI or 31.6 μM DFHBI-1T final concentrations, including an eleventh condition without chromophore. Fluorescence was excited at λex = 468 nm and fluorescence emission measured at λem = 530 nm. Background fluorescence endpoints of wells with identical chromophore concentrations but purified protein replaced with an identical volume of high-salt Tev cleavage buffer were measured, and fluorescence endpoints subtracted from those measured with protein. Background-subtracted data were averaged and the means normalized from 0 to 1 and fit to a single-binding site isotherm function using non-linear least squares fitting to obtain a fitted Kd value (Table 1), and the fit scaled to the maximum mean value (Fig. 1d, e).
# [5] = pH-dependent fluorescence assays (pH titration); assay type: biochemical; conditions: from pH 8.38 to pH 3.63
# Protocol: In measuring pH-dependent fluorescence (Fig. 3d–i), Na2HPO4-citrate buffer supplemented with 150 mM NaCl at unique pH values were produced via mixing various volumes of 100 mM citric acid (Sigma Aldrich), 200 mM Na2HPO4 (Sigma Aldrich), and 2.00 M NaCl, and final pHs quantified via an Accumet AB15 Basic pH meter (Fisher Scientific). pHRed and pHluorin2 were produced via large-scale protein purification, 6xHis-tag removal and size-exclusion chromatography (SEC) purification, and mFAP_pH and mFAP2b were produced via large-scale protein purification and SEC purification. pH-dependent fluorescence was measured at […] final protein concentration for mFAP2b, mFAP_pH and pHRed, and 170 nM final concentration for pHluorin2, at each pH in technical triplicate in 200 μL final volumes per well. […] In measuring fluorescence excitation spectra at each pH (Fig. 3d), excitation wavelengths were set to the range λex = 300–530 nm and fluorescence emission measured at λem = 562 nm. In measuring pH-dependent fluorescence excitation spectra at pH 3.76 and pH 7.34 (Fig. 3f, g), excitation spectra were measured using excitation wavelengths in the range λex = 300–540 nm and emission wavelength λem = 592 nm. […]
molecule,measurement,setting,value
B1,Kd,BCL2,0.32 ± 0.04 µM
B2,absolute fluorescence quantum yield (ϕc),[1],2.1%
same,Kd,[2],~0.18 µM
same,brighter fluorescence with DFHBI-1T than DFHBI,[3],~ 2.7 fold
same,higher affinity for DFHBI than DFHBI-1T,[4],~ 30 fold
B3,fold-change in ratiometric fluorescence (Fratio),[5],~ 250 fold
B4,Kd,BCL2,0.0008 ± 0.0005 µM

# From paper PMC7870846, “Incorporation of sensing modalities into de novo designed fluorescence-activating proteins” (Nature Communications, 2021)
